Test results reported in US20230293685A1.

Tests used:
[1] = biological target: PD-1 (programmed cell death 1; CD279) on tumor infiltrating lymphocytes (human) (UniProt Q15116); assay: positive magnetic selection of TIL with M1H4-coupled microbeads
[2] = biological target: PD-1 (programmed cell death 1; CD279) on tumor infiltrating lymphocytes (human) (UniProt Q15116); assay: flow cytometry re-analysis of cells sorted on EH12.2H7 staining, tumour M1156
[3] = biological target: PD-1 (programmed cell death 1; CD279) on tumor infiltrating lymphocytes (human) (UniProt Q15116); assay: flow cytometry, tumour digest M1156 stained with anti-PD-1 clone EH12.2H7; percent of CD3+ cells
[4] = biological target: PD-1 (programmed cell death 1; CD279) on tumor infiltrating lymphocytes (human) (UniProt Q15116); assay: flow cytometry, tumour digest OV8074 stained with anti-PD-1 clone EH12.2H7; percent of CD3+ cells
[5] = biological target: PD-1 (programmed cell death 1; CD279) on tumor infiltrating lymphocytes (human) (UniProt Q15116); assay: flow cytometry, tumour digest H3046 stained with anti-PD-1 clone EH12.2H7; percent of CD3+ cells
[6] = biological target: PD-1 (programmed cell death 1; CD279) on tumor infiltrating lymphocytes (human) (UniProt Q15116); assay: flow cytometry re-analysis of cells sorted on EH12.2H7 staining, tumour OV8074
[7] = biological target: PD-1 (programmed cell death 1; CD279) on tumor infiltrating lymphocytes (human) (UniProt Q15116); assay: positive magnetic selection of REP TIL with EH12.2H7-coupled microbeads; sorted cells stained with secondary mIgG1-PE and aCD3 FITC

Chain of UniProt Q15116 (Q15116 25-288): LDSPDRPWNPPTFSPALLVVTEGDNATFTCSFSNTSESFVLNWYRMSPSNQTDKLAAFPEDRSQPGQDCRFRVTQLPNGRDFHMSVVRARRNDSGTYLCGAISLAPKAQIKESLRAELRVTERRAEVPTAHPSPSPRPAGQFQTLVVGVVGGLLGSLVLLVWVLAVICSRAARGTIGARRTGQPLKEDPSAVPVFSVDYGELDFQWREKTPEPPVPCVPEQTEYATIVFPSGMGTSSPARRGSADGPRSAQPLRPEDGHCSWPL

Molecule	purity of PD-1+ TIL after magnetic selection [1]	Post-sort Purity % PD-1+ (of CD3+) [2]	Pre-sort % PD-1+ (of CD3+) [3]	Pre-sort % PD-1+ (of CD3+) [4]	Pre-sort % PD-1+ (of CD3+) [5]	Post-sort Purity % PD-1+ (of CD3+) [6]	purity of PD-1+ TIL after magnetic selection [7]
CD279 (PD-1) Monoclonal Antibody (Clone-MIH4), eBioscience	> 85%						
anti-PD-1 antibody clone EH12.2H7 (antibody, from another filing, IgG1, V domains shown) VH: QVQLQQSGAELAKPGASVQMSCKASGYSFTSSWIHWVKQRPGQGLEWIGYIYPSTGFTEYNQKFKDKATLTADKSSSTAYMQLSSLTSEDSAVYYCARWRDSSGYHAMDYWGQGTSVTVSS VL: DIVLTQSPASLTVSLGQRATISCRASQSVSTSGYSYMHWYQQKPGQPPKLLIKFGSNLESGIPARFSGSGSGTDFTLNIHPVEEEDTATYYCQHSWEIPYTFGGGTKLEIK		100%	93%	70%	13%	98%	> 85%
